Values belong to the binder of their own block, whether it stands above or below them.
Columns and labels:
[1] = biological target: T1, PsbO1, photosystem II subunit (endogenous protein in Arabidopsis protein extracts) (Arabidopsis thaliana, UniProt P23321 86-332); experiment: Co-IP with anti-PsbO antibody and Protein A beads, immunoblot with anti-HA
T1 construct: Endogenous protein; also called PSII subunit PsbO1

[2] = biological target: T1, PsbO1, photosystem II subunit …; experiment: Co-IP with anti-HA magnetic beads from DEX-3 plant extracts, LC-MS/MS
Description: Four-day-old seedlings of Col-0 and transgenic plants DEX:AtCV-HA-3 (DEX-3) were cultured in MS/2 media containing […] for 4 days and then kept in the dark for additional 2 days. The shoots of plants were harvested, ground in liquid N2 and incubated at 4° C. for 3 h with lysis buffer provided by μMACS HA Isolation Kit (Miltenyl Biotec, San Diego, Calif., USA), containing Protease Inhibitor Cocktail (Sigma-Aldrich, St. Louis, Mo., USA). Co-immunoprecipitation was performed using anti-HA magnetic beads from μMACS HA Isolation Kit (Miltenyl Biotec, San Diego, Calif., USA) and incubating the cell lysis with beads at 4° C. for 2 h. LC-MS/MS analysis was performed in Genome Center of University California, Davis, as described previously (Shipman-Roston et al. 2010, Plant Physiol 152: 1297-1308). Scaffold (version Scaffold 3) was used to validate MS/MS-based peptide and protein identification. Peptide identifications were accepted if they could be established at >80.0% probability. […]
To elucidate mechanism(s) by which AtCV disrupts chloroplasts, we identified AtCV potential interacting proteins using co-immunoprecipitation (Co-IP) and subsequent identification of interactors by LC-MS/MS (Smaczniak et al. 2012, Nat Protoc 7: 2144-2158). […] In order to confirm this interaction, we used bimolecular fluorescence complementation (BiFC).

T1 sequence (P23321 86-332 limits assumed): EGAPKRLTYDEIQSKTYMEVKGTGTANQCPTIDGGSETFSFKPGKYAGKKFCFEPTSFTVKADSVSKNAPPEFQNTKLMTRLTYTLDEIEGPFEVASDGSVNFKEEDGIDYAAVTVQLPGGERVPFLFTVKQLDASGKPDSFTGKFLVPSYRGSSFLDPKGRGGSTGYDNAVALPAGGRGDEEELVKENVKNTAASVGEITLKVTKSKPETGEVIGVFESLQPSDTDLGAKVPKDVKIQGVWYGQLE

binding result [1]: no binding
B1: AtCVΔC-HA (AtCV without the C-terminus conserved domain, HA tagged; DEX::AtCVΔC-HA plants) (other)
chain: ASLLKTTSKISCRRTENETEPRKNKCSFVLGVAATVVIGGIQINDVASVEAAVVKSPVEEMAAGVVPPR
notes: The making of the construct is not described; not shown: HA tag

binding result [2]: binds
B2: AtCV-HA (Arabidopsis thaliana chloroplast vesiculation protein, At2G25625, fused to an HA tag; expressed from DEX:AtCV-HA, line DEX-3) (other)
chain: ASLLKTTSKISCRRTENETEPRKNKCSFVLGVAATVVIGGIQINDVASVEAAVVKSPVEEMAAGVVPPRRWSDKRTCPPWLENSLETIVPENLPRPSAHRRLELAGLAKGDAPPVGVVMTRVNRGGCFSV
notes: Expressed in planta after DEX induction; also called DEX:AtCV-HA-3; full length AtCV; not shown: HA tag from vector pBAV 154

Source: patent US20160298128A1 (University of California, published 2016)
